Patent US20200102400A1
Where two headings read alike, the source gives them in different places.

What was measured:
FcγRs = assay: cell-based or functional assay
[1] = molecular target: FcγRIIIa-V158-Streptavidin (tetrameric) (human) (UniProt P08637)
[2] = molecular target: FcγRIIIa-V158-Streptavidin (tetrameric) (human) (UniProt P08637); remark: listed apart in the source
[3] = molecular target: FcγRIIIa-V158-GST (dimeric FcγRIIIaV158) (human) (UniProt P08637)
[4] = molecular target: FcγRIIb-GST (dimeric FcγRIIb) (human) (UniProt P31994)
FcγRIIb-GST (dimeric FcγRIIb) (human), sequence (P31994 43-217): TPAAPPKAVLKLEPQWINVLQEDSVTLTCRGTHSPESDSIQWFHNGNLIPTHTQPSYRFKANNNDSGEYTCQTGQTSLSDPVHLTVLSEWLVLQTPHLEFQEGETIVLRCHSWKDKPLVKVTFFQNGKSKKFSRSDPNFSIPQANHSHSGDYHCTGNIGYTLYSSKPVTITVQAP

[5] = molecular target: C1q protein from human serum (human) (UniProt P02745); assay: FACS, spheroplasts, 10 nM C1q-PE
C1q protein from human serum (human), sequence (P02745 23-245, chain 1 of 3): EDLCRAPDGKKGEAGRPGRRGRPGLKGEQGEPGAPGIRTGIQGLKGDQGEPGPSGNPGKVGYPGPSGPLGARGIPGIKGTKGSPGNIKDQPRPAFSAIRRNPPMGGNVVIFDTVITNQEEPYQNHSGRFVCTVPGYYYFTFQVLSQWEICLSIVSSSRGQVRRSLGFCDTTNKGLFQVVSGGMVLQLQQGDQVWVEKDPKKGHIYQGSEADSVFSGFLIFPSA
C1q protein from human serum (human), sequence (P02746 28-253, chain 2 of 3, further chain): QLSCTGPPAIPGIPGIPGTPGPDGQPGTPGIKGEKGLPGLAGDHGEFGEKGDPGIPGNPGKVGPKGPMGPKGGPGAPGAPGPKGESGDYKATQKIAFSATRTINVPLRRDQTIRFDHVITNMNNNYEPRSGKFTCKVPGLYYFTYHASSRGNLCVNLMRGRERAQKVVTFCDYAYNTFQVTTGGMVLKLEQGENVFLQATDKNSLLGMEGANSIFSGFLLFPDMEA
C1q protein from human serum (human), sequence (P02747 29-245, chain 3 of 3, further chain): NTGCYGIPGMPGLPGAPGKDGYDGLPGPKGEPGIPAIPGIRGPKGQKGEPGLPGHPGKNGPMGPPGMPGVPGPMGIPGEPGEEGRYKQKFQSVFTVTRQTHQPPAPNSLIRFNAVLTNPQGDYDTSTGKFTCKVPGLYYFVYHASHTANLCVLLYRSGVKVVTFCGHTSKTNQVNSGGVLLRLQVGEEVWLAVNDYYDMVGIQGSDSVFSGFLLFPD

[6] = molecular target: C1q protein from human serum (human) (UniProt P02745); assay: FACS, cell display, 10 nM C1q-PE
[7] = molecular target: C1q protein from human serum (human) (UniProt P02745); assay: FACS, 10 nM C1q-PE; reference itself
[8] = molecular target: C1q protein from human serum (human) (UniProt P02745); assay: FACS, spheroplasts, 10 nM C1q-PE, high-salt buffer (FIG. 3C)

FcγRIIIa-V158-Streptavidin (tetrameric) (human), sequence (P08637 17-208 F176V): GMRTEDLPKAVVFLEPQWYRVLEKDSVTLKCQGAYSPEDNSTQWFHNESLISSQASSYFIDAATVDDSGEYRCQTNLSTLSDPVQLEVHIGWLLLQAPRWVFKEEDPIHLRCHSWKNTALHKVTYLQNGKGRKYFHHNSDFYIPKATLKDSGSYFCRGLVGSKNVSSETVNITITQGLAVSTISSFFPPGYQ
FcγRIIIa-V158-GST (dimeric FcγRIIIaV158) (human), sequence (P08637 17-208 F176V): as above

Substance	ADCC EC50, Raji targets, PBMC (FcγRs) [nM]	MFI [1]	MFI [2]	MFI [3]	MFI [4]	MFI [5]	MFI [6]	Increasing Fold [7] [fold]	MFI [8]
Rituximab (glycosylated wild-type IgG1) (antibody)	2.11								
wild-type aglycosylated IgG displayed on E. coli spheroplasts (antibody)		6.44	36.6	3.8	4.5	54.7	23.5	1	14.9
